# Tests used:
# HLA-B*44:03 = assay: IEDB peptide-MHC binding, purified MHC/competitive/radioactivity; filed as Kd, often an IC50 or EC50 that approximates it; ≥ and ≤ were set here for values at or beyond the usual limits of such assays
# HLA-B*45:01 = assay: as above
# HLA-B*40:02 = assay: as above
# HLA-B*18:01 = assay: as above
# HLA-B*40:01 [1] = assay: as above
# HLA-B*44:02 [2] = assay: as above
# HLA-A*68:02 = assay: as above
# HLA-A*11:01 = assay: IEDB peptide-MHC binding, purified MHC/direct/fluorescence; filed as Kd, often an IC50 or EC50 that approximates it; ≥ and ≤ were set here for values at or beyond the usual limits of such assays
# HLA-A*69:01 = assay: as above
# HLA-A*31:01 = assay: as above
# HLA-B*58:01 = assay: as above
# HLA-B*27:05 = assay: as above
# HLA-B*07:02 = assay: as above
# HLA-A*02:01 [3] = assay: as above
# HLA-A*26:01 [4] = assay: as above
# HLA-A*03:01 = assay: as above
# HLA-A*01:01 = assay: as above
# HLA-B*08:01 = assay: as above
# HLA-B*40:01 [5] = assay: as above
# HLA-B*44:02 [6] = assay: as above
# HLA-A*02:02 = assay: IEDB peptide-MHC binding, purified MHC/competitive/radioactivity; filed as Kd, often an IC50 or EC50 that approximates it; ≥ and ≤ were set here for values at or beyond the usual limits of such assays; settings: source organism: Hepacivirus hominis
# HLA-A*02:03 = assay: as above; settings: source organism: Hepacivirus hominis
# HLA-A*02:01 [7] = assay: as above; settings: source organism: Hepacivirus hominis
# HLA-A*02:06 = assay: as above
# HLA-B*15:01 = assay: IEDB peptide-MHC binding, purified MHC/direct/fluorescence; filed as Kd, often an IC50 or EC50 that approximates it; ≥ and ≤ were set here for values at or beyond the usual limits of such assays
# HLA-A*24:03 = assay: as above; settings: source organism: Rickettsia sibirica
# HLA-A*26:01 [8] = assay: IEDB peptide-MHC binding, purified MHC/competitive/radioactivity; filed as Kd, often an IC50 or EC50 that approximates it; ≥ and ≤ were set here for values at or beyond the usual limits of such assays; settings: source organism: Dengue virus 2 Jamaica/1409/1983
# HLA-A*30:01 = assay: as above; settings: source organism: Dengue virus 3 Martinique/1243/1999
# [9] = source organism: SARS coronavirus Tor2
# [10] = source organism: Mammarenavirus choriomeningitidis
# [11] = source organism: Shigella dysenteriae
# [12] = source organism: Hepacivirus hominis
# [13] = source organism: Lymphocytic choriomeningitis virus (strain WE)
# [14] = source organism: Rickettsia sibirica
# [15] = source organism: Cryptosporidium parvum
# [16] = source organism: Dengue virus 4 Philippines/H241/1956
sequence,measurement,setting,value
LEDFKPRSQM,Kd,HLA-B*44:03; [9],1010 nM
same,Kd,HLA-B*45:01; [9],17700 nM
same,Kd,HLA-B*40:02; [9],21.7 nM
same,Kd,HLA-B*18:01; [9],≥ 37800 nM
same,Kd,HLA-B*40:01 [1]; [9],1520 nM
same,Kd,HLA-B*44:02 [2]; [9],622 nM
IDYDCVSFCY,Kd,HLA-B*44:03; [9],759 nM
same,Kd,HLA-B*45:01; [9],5800 nM
same,Kd,HLA-B*40:02; [9],≥ 38500 nM
same,Kd,HLA-B*18:01; [9],3000 nM
same,Kd,HLA-B*40:01 [1]; [9],10500 nM
same,Kd,HLA-B*44:02 [2]; [9],1550 nM
SSVLLWMASV,Kd,HLA-A*68:02; source organism: Dengue virus 1 Singapore/S275/1990,45.2 nM
REGLLNYSM,Kd,HLA-B*44:03; [10],1220 nM
same,Kd,HLA-B*45:01; [10],2460 nM
same,Kd,HLA-B*40:02; [10],17.7 nM
same,Kd,HLA-B*18:01; [10],148 nM
same,Kd,HLA-B*40:01 [1]; [10],1190 nM
same,Kd,HLA-B*44:02 [2]; [10],1180 nM
AEMRETHWL,Kd,HLA-A*11:01; [11],≥ 20000 nM
same,Kd,HLA-A*69:01; [11],≥ 20000 nM
same,Kd,HLA-A*31:01; [11],≥ 20000 nM
same,Kd,HLA-B*58:01; [11],≥ 20000 nM
same,Kd,HLA-B*27:05; [11],≥ 20000 nM
same,Kd,HLA-B*07:02; [11],≥ 20000 nM
same,Kd,HLA-A*02:01 [3]; [11],≥ 20000 nM
same,Kd,HLA-A*26:01 [4]; [11],≥ 20000 nM
same,Kd,HLA-A*03:01; [11],≥ 20000 nM
same,Kd,HLA-A*01:01; [11],≥ 20000 nM
same,Kd,HLA-B*08:01; [11],≥ 20000 nM
same,Kd,HLA-B*40:01 [5]; source organism: Escherichia coli,6.21 nM
same,Kd,HLA-B*44:02 [6]; [11],2000 nM
YDYYRYNLPT,Kd,HLA-B*44:03; [9],≥ 20900 nM
same,Kd,HLA-B*45:01; [9],15100 nM
same,Kd,HLA-B*40:02; [9],≥ 36500 nM
same,Kd,HLA-B*18:01; [9],≥ 70500 nM
same,Kd,HLA-B*40:01 [1]; [9],≥ 69600 nM
same,Kd,HLA-B*44:02 [2]; [9],≥ 24800 nM
EEAALCTFLL,Kd,HLA-B*44:03; [9],13.1 nM
same,Kd,HLA-B*45:01; [9],89 nM
same,Kd,HLA-B*40:02; [9],17.7 nM
same,Kd,HLA-B*18:01; [9],163 nM
same,Kd,HLA-B*40:01 [1]; [9],43.7 nM
same,Kd,HLA-B*44:02 [2]; [9],21.6 nM
KLRGMGFNAV,Kd,HLA-A*02:02,161 nM
same,Kd,HLA-A*02:03,2.05 nM
same,Kd,HLA-A*02:01 [7],454 nM
same,Kd,HLA-A*02:06; [12],496 nM
same,Kd,HLA-A*68:02; [12],≥ 40600 nM
KEPVESCPL,Kd,HLA-B*44:03; [13],≥ 78100 nM
same,Kd,HLA-B*45:01; [13],≥ 58400 nM
same,Kd,HLA-B*40:02; [13],155 nM
same,Kd,HLA-B*18:01; [13],≥ 77500 nM
same,Kd,HLA-B*40:01 [1]; [13],1920 nM
same,Kd,HLA-B*44:02 [2]; [13],≥ 77900 nM
ASDRISGIL,Kd,HLA-A*11:01; [14],≥ 20000 nM
same,Kd,HLA-A*69:01; [14],≥ 20000 nM
same,Kd,HLA-A*31:01; [14],≥ 20000 nM
same,Kd,HLA-B*58:01; [14],≥ 20000 nM
same,Kd,HLA-B*27:05; [14],≥ 20000 nM
same,Kd,HLA-B*07:02; [14],14600 nM
same,Kd,HLA-A*02:01 [3]; [14],≥ 20000 nM
same,Kd,HLA-A*26:01 [4]; [14],≥ 20000 nM
same,Kd,HLA-B*15:01; [14],5160 nM
same,Kd,HLA-A*03:01; [14],≥ 20000 nM
same,Kd,HLA-A*01:01; [14],6550 nM
same,Kd,HLA-B*08:01; [14],≥ 20000 nM
same,Kd,HLA-A*24:03,≥ 20000 nM
same,Kd,HLA-B*40:01 [5]; [14],1460 nM
same,Kd,HLA-B*44:02 [6]; [14],≥ 20000 nM
ETACLGKSYA,Kd,HLA-A*26:01 [8],163 nM
same,Kd,HLA-A*68:02; source organism: Dengue virus 2 Jamaica/1409/1983,7.48 nM
MVHQIFGSA,Kd,HLA-A*68:02; source organism: Dengue virus 3 Martinique/1243/1999,16.7 nM
same,Kd,HLA-A*30:01,29.6 nM
RLLRMNNEN,Kd,HLA-A*11:01; [15],≥ 20000 nM
same,Kd,HLA-A*69:01; [15],≥ 20000 nM
same,Kd,HLA-A*31:01; [15],≥ 20000 nM
same,Kd,HLA-B*58:01; [15],≥ 20000 nM
same,Kd,HLA-B*27:05; [15],≥ 20000 nM
same,Kd,HLA-A*02:01 [3]; [15],≥ 20000 nM
same,Kd,HLA-A*26:01 [4]; [15],≥ 20000 nM
same,Kd,HLA-B*15:01; [15],≥ 20000 nM
same,Kd,HLA-A*03:01; [15],≥ 20000 nM
same,Kd,HLA-A*01:01; [15],≥ 20000 nM
same,Kd,HLA-B*08:01; [15],≥ 20000 nM
same,Kd,HLA-B*40:01 [5]; [15],≥ 20000 nM
same,Kd,HLA-B*44:02 [6]; [15],≥ 20000 nM
ESLETLMLV,Kd,HLA-A*68:02; [16],162 nM
ITVSGLYPL,Kd,HLA-A*68:02; [16],12.3 nM
LSMGLIAIAV,Kd,HLA-A*02:06; [16],5.23 nM
same,Kd,HLA-A*68:02; [16],588 nM

# Source: the Immune Epitope Database (IEDB)
